# Results taken from PMC8285524, “Selective targeting of ligand-dependent and -independent signaling by GPCR conformation-specific anti-US28 intrabodies” (Nature Communications, 2021).
# B1: CX3CL1-Alexa647, P78423 25-341 (ligand)
# chain: QHHGVTKCNITCSKMTSKIPVALLIHYQQNQASCGKRAIILETRQHRLFCADPKEQWVKDAMQHLDRQAAALTRNGGTFEKQIGEVKPRTTPAAGGMDESVVLEPEATGESSSLEPTPSSQEAQRALGTSPELPTGVTGSSGTRLPPTPKAQDGGPVGTELFRVPPVSTAATWQSSAPHQPGPSLWAEAKTSEAPSTQDPSTQASTASSPAPEENAPSEGQRVWGQGQSPRPENSLEREEMGPVPAHTDAFQDWGPGSMAHVSVVPVSSEGTPSREPVASGSWTPKAEEPIHATMDPQRLGVLITPVPDAQAATRRQ
# modifications: here or on the partner: Alexa Fluor 647 label
# B2: CX3CL1 (unlabeled) (ligand, UniProt P78423 25-341, looked up)
# chain: B1 chain
# notes: CX3CL1 (fractalkine), chemokine ligand of US28; also called fractalkine; source: bought: PeproTech (stated for the BRET assays)
# Assays:
# [1] = biological target: NLuc-US28-Irr Nb (human cytomegalovirus (HCMV)) (UniProt P69332); test: FRET or BRET; BRET-based saturation binding of Alexa647-labeled chemokine (0.1 pM-10 nM) to 100 ng membranes with NLuc-US28 constructs; HBSS with 0.05% BSA, 1 h at RT, 10 µM furimazine
# [2] = biological target: NLuc-US28-Nb7 (human cytomegalovirus (HCMV)) (UniProt P69332); test: as above
# [3] = biological target: NLuc-US28-VUN103 (human cytomegalovirus (HCMV)) (UniProt P69332); test: as above
# [4] = biological target: NLuc-US28 WT (human cytomegalovirus (HCMV)), P69332; test: as above
# [5] = biological target: T1, US28 wildtype (human cytomegalovirus (HCMV), UniProt P69332 1-354, Strain: VHL/E is stated for some constructs, but its sequence is neither printed nor among the candidates. The AD169 entry is used as the closest wild type, so a few strain-specific residues may diffe); test: radioligand binding; as a1, displacement of 125I-CCL5, membranes of HEK293T cells co-expressing US28 WT and the intrabody Nb7-mVenus; conditions: one partner purified
# T1 chain: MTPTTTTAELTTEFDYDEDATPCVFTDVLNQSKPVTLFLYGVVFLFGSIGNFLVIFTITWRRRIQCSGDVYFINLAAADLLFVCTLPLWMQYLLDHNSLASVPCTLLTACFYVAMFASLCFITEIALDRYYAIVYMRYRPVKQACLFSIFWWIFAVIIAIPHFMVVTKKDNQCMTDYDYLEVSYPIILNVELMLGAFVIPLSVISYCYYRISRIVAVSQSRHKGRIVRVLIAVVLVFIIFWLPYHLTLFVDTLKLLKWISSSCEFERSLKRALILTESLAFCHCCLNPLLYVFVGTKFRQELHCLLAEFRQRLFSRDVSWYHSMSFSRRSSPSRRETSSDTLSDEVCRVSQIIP
# [6] = biological target: T1, US28 wildtype; test: radioligand binding; as a1, displacement of 125I-CCL5, membranes of HEK293T cells co-expressing US28 WT and the intrabody VUN103-mVenus; conditions: one partner purified
# [7] = biological target: T1, US28 wildtype; test: radioligand binding; displacement of 100 pM 125I-CX3CL1 or 200 pM 125I-CCL5 from 3 µg US28-expressing membranes (no intrabody) by unlabeled ligand; HEPES binding buffer pH 7.4, 0.1 M NaCl, 0.5% BSA; 2 h at room temperature; GF/C filtration; conditions: one partner purified
molecule,measurement,setting,value
CX3CL1-Alexa647 (from UniProt P78423 25-341) (ligand),pKD,[1],9.6
same,pKD,[2],10.4
same,pKD,[3],9.6
B1,pKD,[4],9.6
B2,pKi,[5],10.7
same,pKi,[6],9.7
same,pKi,[7],9.9
